According to the nanobody polyreactivity screen of Harvey et al. (2022):

Test: yeast display, Sf9 membrane polyspecificity reagent, FACS + sequencing; frameworks hold sequencing errors
Procedure, shortened: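 Nanobodies came from a synthetic yeast display library in Saccharomyces cerevisiae BJ5465, induced with galactose for 36–48 hours and stained for 1 hour at 4 °C with 10% biotinylated, detergent-solubilized Sf9 membrane reagent. Cells were enriched on streptavidin microbeads and then FACS-sorted, with low and high (top ~1%) gates set on anti-HA fluorescence for expression and streptavidin fluorescence for reagent binding. Each polyreactivity label reflects the gate a clone came from. Genes were amplified by colony PCR, sequenced by MiSeq 2 × 250 and filtered by CDR length.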

Sequence	polyreactivity (PSR sort gate)
QVQLVESGGGLVQAGGSLRLSCAASGSIFSSNAMGWYRQAPGKERELVAAISRRGGSTYYADSVKGRFTISRDNAKNTVYLQMNSLKPEDTAVYYCNAYPWLLSTRYDYWGQGTQVTVSS	high polyreactivity
QVQLVESGGGLVQAGGSLRLTCAASGSTSGQNAMGRYRQAPGNERELVAAISSSAGSTYADSVKGRFTISRDNAKNTVYLQMNSLKPEDTAVYYCNVPYYYTRGSYGYWGQGTQVTVSS	low polyreactivity
QVQLEESGGGLVQAGGSLRLSCAASGSIFVSVTMGWYRQAPGKERELVASIGRGSTTNHADSVKGRFTISRDNAKNIVYLLMNSLKPEDTAVYYCAALESYGKYHGYWGQGTQVTVSS	low polyreactivity
QVQLVESGGGLVQAGGSLRLSCAASGRTFRRYAMGWYRQAPGKERELVATITSNGGSTYYADSVKGRFTISRDNAKNTVYLQMNSLKPEDTAVYYCARDLTYYRSRYDYWGQGTQVTVSS	high polyreactivity
QVQLVESGGGLVQAGGSLRLSCAASGRTFGYYAMGWYRQAPGTERELVASISSRGGSSYYADSVKGRFTISRDNAKNTVYLQMNSLKPEDTAVYYCNAPSWSGSRTYYYWGQGTQVTVSS	high polyreactivity
QVQLVESGGGLVQAGGSLRLSCAASGFIFEPNAMGWYRQAPGKERELVAAISWSGGSTYYADSVKGRFTISRDNAKNTVYLQMNSLKPEDTAVYYCNAAVRGVGELDYWGQGTQVTVSS	high polyreactivity
QVQIVESGGGLVQAGGSLRLSCAASGRIIKGYAMGWYRQAPGKDMELVADISEDGGSTYYADSVKGRFTISRDNAKNTVYLQMNSLKTEDTAVYFCAAEYYVVNYAIGYDYWGQGTQVTVSS	low polyreactivity
QVQLVESGGGLVQAGGSLRLSCAASGITFFAYTMGWYRQAHGKERELVASISSSGGSTNYADSVKGRFTISRDNAKNTVYLQMNSLKPEDTAVYYCAARQSLYRGGRWYDYWGQGTQVTVSS	high polyreactivity
QVQRVESGGGLVQAGGSVRLSCPASGSIFWSYAMGWYRQAPGKERELVAVINWSGGSTYYADSVKGRFTISRDNAKNTVYLQMNSLNPEDTAVYYCNKDLGPTKRPFTFDYSGQGTQVTVSS	low polyreactivity
QVQLLESGGGLVQAGASLRLSCAASGSICWVYDMGWYRQAPGKERELVAAISQSGGSTYYADSVKGRFTISRDNAKNTVYFQMNSLKPEDTAGYYCAAYVRGQNYDYWGQGTQVTVSS	high polyreactivity
QVQLVESGGGLVQAGGSLRLSCAASGFTFSYYAMGWYRQAPGKERELVAAISFGGSTYYADSVKGRFTISRDNAKNTVYLQMNSLKPEDTAVYYCAVYGDSYWGAYYYSDGYWGQGTQVTVSS	low polyreactivity
QVQLVESGGGLVQAGGSLRLSCAASGRTFEYYAMGWYRQAPGKERELVASITSSGVRTYYADSVKGRFTISRDNAKNTVYLQMNSLKPEDTAVYYCAKRLVYSRWGDYWGQGTQVTVSS	high polyreactivity
QVQLVESGGGLVPAGGSLRLSCAASGFTLYRYVMGWYRQAPGKERELVAAITRGGNTNYADSVKGRFTISRDNAKKTVYLQKNSLKPEDTAVYDCARRYRDYGRYGYWGQGTQVTVSS	high polyreactivity
QVQLVESGGGLVQAGGSLRLSCAASGRIFLSNGMGWYRHAPGKERELVAGITTGGGDSTYYADSVKGRFTISRDNAKHTVYLQMNSLKPEDTAVYYCNADSVYAGFDYWGQGPQVTVSS	low polyreactivity
QVQHEESGGGLVQAGGSLRLSCAASGSIFRGNAMGWYRQAPGNERELVAAITRSGGRTYYADSVKGRFTISRDNAKNTVYLQMNSLKPEDTAVYYCAADYPYGSPTHFDYWGPGTQVTVSS	high polyreactivity
QVQLVESGGGLVQAGGSLRLSCAASGFTFTAYAMGWYRQAPGKERELVAAISYRGGRTNYAYSVKGRFTISRDYAKYTVYLQMNSLKPEDTAVYYCAARPRISTREMDYWGQGTQVTVSS	high polyreactivity
QVQHVESGGGLVQAGGSLRLSCAASGFIFTPYAMGWYRQAPGKEREFVASITWSGGSTNYADSVKGRFTISRDNAKNTVYLQMNSLKPEDTAVYYCNADTWSPNDYWGLGTQVTVSS	low polyreactivity
QVQLVESGGGLVQAGGSLRLSCAASGFTFVNYVMGWYRQAHGKERELVAAISRSGGSTYYADSVKGRFTISRDNAKNTVYLQMNSLKPEDTAVYYCAARWFYRAGFNYWGQGTQVTVSS	high polyreactivity
QVQLVESGGGLVQAGGSLRLSSAASGSTFHNYAMRWSRQAPGNEREWVASIRLIGGSTYYADSVKGRFTISRDNAKNTVYLQMNSLKPEDTAVYYCAATSTDRSYLEYDYWGQGTQVTVSS	low polyreactivity
QVQLVESGGGLVQAGGSLRLSCAASGRIFYINAMGWYRQAPGKEMELVAAITGSVGSTYYADSVKGRFTISRDNAKNTVYLLMNSQKPEDTAVYYCAASDQPYNGGDGDYWGQGTQVTVSS	low polyreactivity
QVQLVESGGGLVQAGGSLRLSCAASGFTFFYYVMGWYRQAPGKERDLVAAITRGGSTYYADSVKGRFTISRDNAKNTVDLQMNSLKPEDTAVYYCNKVLRVYLGRFEYYSWGQGTQVTVSS	high polyreactivity
QVQLVESGGGLVQAGGSLRLSCAASRSTFSGNAMGWYIQAPGKERELVATITSDGTTYYADSVKGRFTISRDNAKNNVYLLMNSLKPEDTAVYYCAARYTAYRDDYWGQGTHVTVSS	high polyreactivity

Sequence	polyreactivity (PSR sort gate)
QVQLVESGGGLVQGGGSLRLSCAASGFTFGRYTMGWYRQAPGKERELVAPISWSGGSTFYADSVKGRFTISRDNAQNTVYFQMNSLKPEDTAVYNCDTRLKSVSGGYNYWGQGTQVTVSS	high polyreactivity
QVQLVESGGGLVQAGGSLRLSCAASGFTFRTNTMGWYRQAPGKERELVAAITYRGGRTYADSVKGRFTISRDNAKNTVYLQMNSLKPEDTAVYYCAARHYRGTAVDYWGQGTQVTVSS	high polyreactivity
QVQLVESWGGLVQAGGSLRLICAASRGTFRVYAMGWYRQAPVKERELVAAITWRGGRTYYADSVKGRFTISRDNAKNTVYLQMNSLKPEDTAVYYCAADRYGDLYDYWGQGTQVTVSS	high polyreactivity
QVQLVESGGGLVQAGGSLRLSCAASGFILGYNAMGWYRQAPGKERELVADITFSGGGTNYADSVKGRFTISRDNAKNTVYLQMNSLKPEDTAVYYCNAAAFSQLRVRYDYWGQGTQVTVSS	low polyreactivity
QVQLVESGGGLVQAGGSLRLSCAASGRIFDDYDMGWYRQAPGKEREFVAAISTSGGSTYYADSVKGRFTISRDNAKNTVYLQMNSLKPEDTAVYYCATREYRYTGRQSRRYYWGQGTQVTVSS	high polyreactivity
QVQLVESGGGLVQAGGRLRLSCASTGLTLHGNAMGWYRQAPGKERELVATISSSGGSTFYADSVKGRFTISRDNAKNTDYLQMNSLKPEDTAVYYCNADAPYSDDYYVRFDYWGQGTQVTVSS	low polyreactivity
QVQLVESGGGLVQAGGSLRLRCAASGSTFSIYAMGWYRQATGKQRELVAAISSSGGSTYYADSVKGRFTISRDTAKNTGYLQMNSLKPEDTAFYYCNKRKYHVRYDYWGQGTQVTVSS	low polyreactivity
QFQLVETGGGLVQAGGSLRLSCAASGSILGFNAMRWYIQAPGKESELGAAIRWSGDSTYADSVKGLFTMSRDNAKNTVYLQMNSLTQEDPSFYYCNARDTSYANWLSHFYYWGQGTQVTVSW	low polyreactivity
QVQLVESGGGLVQAGGSLRLSCAASGFNFEVNAMGWYRQAPGKERELVAAITTDGSTNYADSVNGRFSSSRDNAKNTVYIQMTSLKPEDTAVYYCAARVQHYLGTDDYWGQGTQVTVSS	low polyreactivity
QVQLVESGGGLVQAGGSLRLSCAASGTIFGGYGRGWYRQAPGKERELVAAITSGSSTYYADSVKGRFTISRDNAKNTVYLQMNSLKPEDTAVYYCAARPFPHSAYEGDYWGRGTQVTVSS	low polyreactivity
QVQLVESGGGLVQAGGSLRLSCAASGSIFGSYAMGWYRQATGNERELVAAIRSSASTYYADSVKGRFTISRDNAKNTVYLQMYSLKPEDTAVYYCAAKFTSYGRSRYYSWGQGTQVTVSS	high polyreactivity
QVQLVESGGGLVQAGGSLRLSCAASGRTFYTNAMGWYRQAPGKERELSTNYADSVKGRFTISRDNAKNTVYLQMNSLKPEDTAVYYCNADGFLRFAGFDYWGQGTQVTVSS	low polyreactivity
QVQLVESGGGLVQAGGSLRLSCAASGRIFDVYAMGWYRQAPGKERELVAAITGSGGSTYYADSVKGRFTISRDNAKNTVYLQMNSLKPEDTAVYYCNAVGIWFPIRLIVPYDYWGQGTQVTVSS	low polyreactivity
QVQLVESGGGLVQAGGSLRLSCAASGYIFGWYTMGWYRQAPGKEREFVASISNSDASTYYADSVKGRFTISRDNAKNTVYLQMNSLKPEDTAVYYCAADTTYWHWIYYYWGQGTQVTVSS	low polyreactivity
QVQLQESGGGLVQAGGSLRLSCAARGNIFLGDTMGWYRQAPGKEREFVAGIARGGNPYYADSVKGRFTISRNNAKNTVYLQKNSLKPVDTAVHYCAVQRSHASDYNYWGQGTQVTVSS	low polyreactivity
QVQLVESGGGLVQAGGSLRLSCAASGRIFGRYAMGWYRQAPGKERELVASITRRGGSTYYADSVKGRFTISRDNAKNTVYLQMNSLKPEDTAVYYCAAGGFSWEGDSWGQGTEVTVSS	high polyreactivity
QVQLVESGGGLVQAGGSLRLSCAASGRIFQAYAMGWYRQAPGKERELVASISYRGGITYYADSVKGRFTISRDNAKNTVYLQMNSLKPEDTAVYYCAAGRKGSMYYWGQGTQVTVSS	high polyreactivity
QVQLVESGGGIVQSGGSLRLSFAASGSIVDWNAMGWYRQAPGKARELVASISSGGSTDYADSVKGRFTISRDNAKNTVYLQMNSLKPEDTAVYYCNADAYAYYPPRWYYGYDYWGQGTQVTVSS	low polyreactivity
QVQLVESGGGLVQAGGSLRLSCAASGGIFFPNAMGWYRQAPGKERELVAAISWSAGSTYYADSVKGRFTISRDHAKNTVDLQMNSLKPEDTAVYYCPAAGSNYTVWYGYYYWGQGTQVTVSS	low polyreactivity
QVQLVESGGGLVQAGGSLRLICAASGGTFYINTMGWYRQAPGKERELVATITIVVSTKYADSVKGRFTISRDNAKNTVYLQMNSLKPEDTAVYYCAKDDVYRDSYLVFDGEMDYWGQGTQVTVSS	low polyreactivity
QVQLVESGGGLVQSGGSLRLSCAASVIIFAWYAMGWYRQAPGKERELVAAITANSDSTYYADSVKGRFTISRDNAKNTVYLQMNSLKPEDTAVYDCAKRTYSRKFRGAYNYWGQGTQVTVSS	high polyreactivity
